# Reference: patent US8828401B2, “Cytotoxic peptides and antibody drug conjugates thereof” (Pfizer Inc., priority 2011, dated 2014)
# B1: ch75-mc0131 (conjugate)
# VH: QVKLLQSGAALVKPGASVKMSCKASGYAFTDYWVTWVKQSHGKSLEWIGEISPNSGGTNFNEKFKGKATLTVDKSTSTAYMELSRLTSEDSAIYYCTRGEIRYNWFAYWGQGTLVTVSS
# VL: DIQMTQSPSSLSASVGDRVTITCKASQNVGNNIAWYQQKPGKAPKLLIYYASNRYTGVPSRFSGSGYGTDFTLTISSLQPEDFATYYCQRLYNSPFTFGGGTKVEIK
# B2: ch75-vc6780 (conjugate)
# VH: B1 VH
# VL: B1 VL
# B3: ch75-vc0101: rat-human chimeric anti-Notch antibody ch75 conjugated to mcValCitPABC-#54 (conjugate)
# VH: B1 VH
# VL: B1 VL
# B4: ch28-mc0131 (conjugate)
# VH: EVQLVESGGGLVQPGRSLTLSCVASGFTFRDYGMTWIRQAPGKGLTWVAYISSGSNYIYYAEAVKGRFTISRDNAKNTLYLQMTSLRSEDTALYFCTRRGPFVLDAWGQGASVTVSS
# VL: DIQMTQSPSFLSASVGDRVTINCKASQSINRYLHWFQQKLGEAPKLLIYNANGLQTGIPSRFSGSGSGTDFTLTISSLQSEDVATYFCLQHNTWPDTFGAGTKLELK
# B5: ch28-vc0101: rat-human chimeric anti-Notch antibody ch28 conjugated to mcValCitPABC-#54 (conjugate)
# VH: B4 VH
# VL: B4 VL
# B6: ch28-me0131 (conjugate)
# VH: B4 VH
# VL: B4 VL
# B7: ch28-vc6780 (conjugate)
# VH: B4 VH
# VL: B4 VL
# B8: ch28-MalPeg6C2-0131 (conjugate)
# VH: B4 VH
# VL: B4 VL
# B9: ch28-MalPeg6C2-8261 (conjugate)
# VH: B4 VH
# VL: B4 VL
# B10: ch28-mc3377 (conjugate)
# VH: B4 VH
# VL: B4 VL
# Experiments:
# 37622A1 NSCLC xenografts = assay: 37622A1 NSCLC patient-derived xenografts with anti-Notch ADCs; format: in vivo, nude (Nu/Nu) female mice; conditions: 5 mg/kg Q4dx4
# Description: (§1) Humanized anti-Notch antibodies, hu28 and hu75, and rat-human chimeric anti-Notch antibodies, ch28 and ch75, were conjugated to various linker-payload combinations and tested in 37622A1 non-small cell lung cancer (NSCLC), HCC2429 lung cancer, MDA-MB-468 breast cancer and N87 gastric cancer xenograft models. For each model described below the first dose was given on Day 0. The tumors were measured at least once a week and their volume was calculated with the formula: tumor volume (mm^3)=0.5×(tumor width^2)(tumor length). The mean tumor volumes (±S.E.M.) for each treatment group were calculated having a maximum of 10 animals and a minimum of 6 animals to be included.
# The effects of anti-Notch ADCs were examined in immunodeficient mice on the in vivo growth of human tumor xenografts that were established from fragments of freshly resected 37622A1 NSCLC tumors obtained in accordance with appropriate consent procedures (Asterand). The 37622A1 NSCLC patient-derived xenografts were subcutaneously passaged in vivo as fragments from animal to animal in nude (Nu/Nu) female mice. When the tumors reached a volume of 150 to 300 mm^3, they were staged to ensure uniformity of the tumor size among various treatment groups. The 37622A1 NSCLC model was dosed intraveneously four times every four days (Q4dx4) with PBS vehicle, humanized anti-Notch ADCs, control huNeg-8.8 ADCs and cisplatin at the doses provided in Table 11.
# N87 gastric xenografts = N87 gastric xenografts with anti-Notch ADCs; format: in vivo, nude (Nu/Nu) female mice; conditions: Dose 5 mg/kg Q4dx4 iv
# Description: as §1
# Similar in vivo experiments were performed with the N87 gastric cancer cell line as described above. […] When the tumors reached a volume of 250 to 450 mm^3, the tumors were staged to ensure uniformity of the tumor mass among various treatment groups. The N87 gastric model was dosed intraveneously Q4dx4 with PBS vehicle, humanized anti-Notch ADCs, control huNeg-8.8 ADCs and cisplatin at the doses provided in Tables 16 and 17.
# HCC2429 (lung cancer) = assay: In vitro cytotoxicity assay with anti-Notch ADCs (MTS); format: cell-based; conditions: average of 2-4 repeats where ± S.E.M. is given
# Description: (§2) The effects of anti-Notch ADCs were assessed on 1) cell lines endogenously expressing Notch protein: HCC2429 (lung cancer), OVCAR3 (ovarian cancer) and MDA-MB-468 (breast cancer), 2) cell lines engineered to over-express Notch protein: MDA-MB-468/hNotch and U2OS/hNotch, and 3) a negative control cell line (SW900) using an MTS cellular viability indicator (Promega, Madison, Wis.). These cell lines were cultured with increasing concentrations of anti-Notch ADCs comprising humanized anti-Notch antibodies, hu28 and hu75, and rat-human chimeric anti-Notch antibodies, ch28 and ch75, conjugated to various linker-payload combinations of the present invention. As a specificity control for the anti-Notch-ADCs, non-targeted control-ADCs (huNeg8.8-ADCs or ch2H6-ADCs) were also tested on the same cell lines. After four days, viability of each culture was assessed. IC50 values were calculated by logistic non-linear regression and presented as ng Ab/mL. The drug antibody ratio (DAR) is also provided.
# U2OS/hNotch = assay: as above; format: cell-based; conditions: average of 2-4 repeats where ± S.E.M. is given
# Description: as §2
# [1] = tested on: MDA-MB-468 (breast cancer); assay: as above; format: cell-based; conditions: average of 2-4 repeats where ± S.E.M. is given
# Description: as §2
# OVCAR3 (ovarian cancer) = assay: as above; format: cell-based; conditions: average of 2-4 repeats where ± S.E.M. is given
# Description: as §2
# MDA-MB-468/hNotch = assay: as above; format: cell-based; conditions: average of 2-4 repeats where ± S.E.M. is given
# Description: as §2
molecule,measurement,setting,value
"N.N.[Cl][Pt][Cl] [Cisplatin, reference compound]",tumor volume (mm^3 ± SEM),37622A1 NSCLC xenografts; DAY 4,226 ± 15 mm^3
same,tumor volume (mm^3 ± SEM),37622A1 NSCLC xenografts; DAY 7,280 ± 29 mm^3
same,tumor volume (mm^3 ± SEM),37622A1 NSCLC xenografts; DAY 11,301 ± 34 mm^3
same,tumor volume (mm^3 ± SEM),37622A1 NSCLC xenografts; DAY 14,345 ± 47 mm^3
same,tumor volume (mm^3 ± SEM),37622A1 NSCLC xenografts; DAY 18,309 ± 37 mm^3
same,tumor volume (mm^3 ± SEM),37622A1 NSCLC xenografts; DAY 21,373 ± 50 mm^3
same,tumor volume (mm^3 ± SEM),37622A1 NSCLC xenografts; DAY 25,401 ± 58 mm^3
same,tumor volume (mm^3 ± SEM),37622A1 NSCLC xenografts; DAY 28,446 ± 64 mm^3
same,tumor volume (mm^3 ± SEM),37622A1 NSCLC xenografts; DAY 32,482 ± 62 mm^3
same,tumor volume (mm^3 ± SEM),37622A1 NSCLC xenografts; DAY 35,587 ± 80 mm^3
same,tumor volume (mm^3 ± SEM),37622A1 NSCLC xenografts; DAY 39,591 ± 83 mm^3
same,tumor volume (mm^3 ± SEM),37622A1 NSCLC xenografts; DAY 42,612 ± 92 mm^3
same,tumor volume (mm^3 ± SEM),37622A1 NSCLC xenografts; DAY 46,723 ± 119 mm^3
same,tumor volume (mm^3 ± SEM),37622A1 NSCLC xenografts; DAY 49,853 ± 139 mm^3
same,tumor volume (mm^3 ± SEM),37622A1 NSCLC xenografts; DAY 53,970 ± 193 mm^3
same,tumor volume (mm^3 ± SEM),37622A1 NSCLC xenografts; DAY 56,1215 ± 231 mm^3
same,tumor volume (mm^3 ± SEM),37622A1 NSCLC xenografts; DAY 60,1428 ± 273 mm^3
same,tumor volume (mm^3 ± SEM),37622A1 NSCLC xenografts; DAY −1,185 ± 11 mm^3
same,tumor volume (mm^3 ± SEM),N87 gastric xenografts; DAY 0,328 ± 20 mm^3
same,tumor volume (mm^3 ± SEM),N87 gastric xenografts; DAY 4,414 ± 27 mm^3
same,tumor volume (mm^3 ± SEM),N87 gastric xenografts; DAY 7,520 ± 26 mm^3
same,tumor volume (mm^3 ± SEM),N87 gastric xenografts; DAY 11,501 ± 29 mm^3
same,tumor volume (mm^3 ± SEM),N87 gastric xenografts; DAY 14,637 ± 31 mm^3
B1,IC50 (ng Ab/mL) ± S.E.M.,HCC2429 (lung cancer),671 ± 406.5 ng Ab/mL
same,IC50 (ng Ab/mL) ± S.E.M.,U2OS/hNotch,19 ng Ab/mL
same,IC50 (ng Ab/mL) ± S.E.M.,[1],8202 ± 2773.0 ng Ab/mL
same,IC50 (ng Ab/mL) ± S.E.M.,OVCAR3 (ovarian cancer),289 ng Ab/mL
B2,IC50 (ng Ab/mL) ± S.E.M.,HCC2429 (lung cancer),1004 ± 177.0 ng Ab/mL
same,IC50 (ng Ab/mL) ± S.E.M.,[1],6873 ± 4230.0 ng Ab/mL
same,IC50 (ng Ab/mL) ± S.E.M.,OVCAR3 (ovarian cancer),922 ng Ab/mL
same,IC50 (ng Ab/mL) ± S.E.M.,MDA-MB-468/hNotch,21 ± 3.5 ng Ab/mL
B3,IC50 (ng Ab/mL) ± S.E.M.,HCC2429 (lung cancer),2112 ± 826.0 ng Ab/mL
same,IC50 (ng Ab/mL) ± S.E.M.,[1],4064 ± 1793.9 ng Ab/mL
same,IC50 (ng Ab/mL) ± S.E.M.,MDA-MB-468/hNotch,24 ± 4.0 ng Ab/mL
B4,IC50 (ng Ab/mL) ± S.E.M.,HCC2429 (lung cancer),251 ± 77.5 ng Ab/mL
same,IC50 (ng Ab/mL) ± S.E.M.,U2OS/hNotch,3 ± 0.5 ng Ab/mL
same,IC50 (ng Ab/mL) ± S.E.M.,[1],35 ± 18.5 ng Ab/mL
same,IC50 (ng Ab/mL) ± S.E.M.,OVCAR3 (ovarian cancer),6 ± 1.0 ng Ab/mL
B5,IC50 (ng Ab/mL) ± S.E.M.,HCC2429 (lung cancer),3230 ± 1116.5 ng Ab/mL
same,IC50 (ng Ab/mL) ± S.E.M.,U2OS/hNotch,95 ± 18.2 ng Ab/mL
same,IC50 (ng Ab/mL) ± S.E.M.,[1],5443 ± 2630.9 ng Ab/mL
same,IC50 (ng Ab/mL) ± S.E.M.,OVCAR3 (ovarian cancer),635 ng Ab/mL
same,IC50 (ng Ab/mL) ± S.E.M.,MDA-MB-468/hNotch,4 ± 0.5 ng Ab/mL
B6,IC50 (ng Ab/mL) ± S.E.M.,HCC2429 (lung cancer),30 ng Ab/mL
same,IC50 (ng Ab/mL) ± S.E.M.,U2OS/hNotch,3 ± 1.15 ng Ab/mL
same,IC50 (ng Ab/mL) ± S.E.M.,[1],24 ± 14.0 ng Ab/mL
same,IC50 (ng Ab/mL) ± S.E.M.,OVCAR3 (ovarian cancer),8 ± 2.0 ng Ab/mL
B7,IC50 (ng Ab/mL) ± S.E.M.,HCC2429 (lung cancer),324 ± 78.9 ng Ab/mL
same,IC50 (ng Ab/mL) ± S.E.M.,[1],4407 ± 2128.2 ng Ab/mL
same,IC50 (ng Ab/mL) ± S.E.M.,OVCAR3 (ovarian cancer),90 ± 48.5 ng Ab/mL
same,IC50 (ng Ab/mL) ± S.E.M.,MDA-MB-468/hNotch,3 ± 0.5 ng Ab/mL
B8,IC50 (ng Ab/mL) ± S.E.M.,U2OS/hNotch,3 ± 0.85 ng Ab/mL
same,IC50 (ng Ab/mL) ± S.E.M.,[1],10 ± 1.0 ng Ab/mL
same,IC50 (ng Ab/mL) ± S.E.M.,OVCAR3 (ovarian cancer),10 ± 2.0 ng Ab/mL
B9,IC50 (ng Ab/mL) ± S.E.M.,[1],83 ± 35.5 ng Ab/mL
B10,IC50 (ng Ab/mL) ± S.E.M.,U2OS/hNotch,3 ± 0.5 ng Ab/mL
same,IC50 (ng Ab/mL) ± S.E.M.,[1],27 ± 11.3 ng Ab/mL
same,IC50 (ng Ab/mL) ± S.E.M.,OVCAR3 (ovarian cancer),14 ± 5.5 ng Ab/mL
